Laboratory results published in patent US11524046B2, “Biofilm prevention, disruption and treatment with bacteriophage lysin” (priority 2012, dated 2022).

Legend:
biofilms of BAA-42 MRSA = test: Biofilm eradication in 24-well plates, crystal violet staining; assay type: cell-based, S. aureus
[1] = test system: S. epidermidis (strain CFS 313 NRS34) biofilm; test: S. epidermidis catheter biofilm titration, methylene blue staining; assay type: cell-based; details: MIC 8 ug/ml
Method: S. epidermidis biofilms in catheters were treated with PlySs2 and evaluated using methods similarly as described above for the S. aureus studies.
The results of S. epidermidis (strain CFS 313 NRS34, which is a vancomycin intermediate sensitive S. epidermidis (VISE) strain) biofilm studies on catheters treated with PlySs2 at 10×MIC and below are shown in FIG. 17. S. epidermidis biofilm is destroyed at PlySs2 concentrations down to 0.1×MIC. The MIC here is 8 ug/ml.

Enterococcus faecalis = Enterococcus faecalis (17)
[2] = test system: S. aureus MRSA strain BAA-42; test: Biofilm prevention assay, 24 well plate, crystal violet; assay type: cell-based; details: added with bacteria, 6 hours
Listeria monocytogenes = test: MIC of PlySs2, susceptible and non-susceptible bacterial strains; assay type: cell-based; details: Listeria monocytogenes (12)
Staphylcoccus aureus = test: as above; assay type: cell-based
Escherichia coli = Escherichia coli (6)
[3] = test system: Staphylococcus lugdiensis; test: MIC of PlySs2, susceptible and non-susceptible bacterial strains; assay type: cell-based; details: Staphylococcus lugdiensis (10)
Lactobacillus spp. = details: N 6
[4] = test system: Staphylococcus epidermidis; test: MIC of PlySs2, susceptible and non-susceptible bacterial strains; assay type: cell-based; details: Staphylococcus epidermidis (11)

B1: PlySs2: bacteriophage lysin derived from Streptococcus suis, amino acid sequence of FIG. 5 / SEQ ID NO: 1; CHAP and SH3 domains (protein, listed as Streptococcus suis)
chain: MTTVNEALNNVRAQVGSGVSVGNGECYALASWYERMISPDATVGLGAGVGWVSGAIGDTISAKNIGSSYNWQANGWTVSTSGPFKAGQIVTLGATPGNPYGHVVIVEAVDGDRLTILEQNYGGKRYPVRNYYSAASYRQQVVHYITPPGTVAQSAPNLAGSRSYRETGTMTVTVDALNVRRAPNTSGEIVAVYKRGESFDYDTVIIDVNGYVWVSYIGGSGKRNYVATGATKDGKRFGNAWGTFK
Question: With B1 as the molecule, how does the biofilm dissolution (biofilms of BAA-42 MRSA; 3.2 μg/ml (1/10×MIC), 4 hours) read?
Answer: Significant dissolution

Question: And the “time by which full clearance was observed” value (biofilms of BAA-42 MRSA; 0.01×MIC)?
Answer: ≤ 24 h

Question: What about the biofilm clearance (biofilms of BAA-42 MRSA; 0.01×MIC, 4 hours) of the same molecule?
Answer: partial clearance

Question: And the “time by which the biofilm is cleared” value (biofilms of BAA-42 MRSA; 0.1×MIC)?
Answer: ≤ 4 h

Question: And the biofilm dissolution (biofilms of BAA-42 MRSA; 0.32 (1/100×MIC), 4 hours)?
Answer: some dissolution

Question: And the “time by which the biofilm is cleared” value (biofilms of BAA-42 MRSA; 1×MIC 32 μg/ml)?
Answer: ≤ 2 h

Question: And the “lowest concentration at which biofilm is destroyed” value [1]?
Answer: 0.1 ×MIC

Question: What about the “MIC 50%” value (Enterococcus faecalis) of the same molecule?
Answer: >512 µg/mL

Question: And the “MIC 90%” value (Enterococcus faecalis)?
Answer: >512 µg/mL

Question: And the “prevention of biofilm formation” value ([2]; 0.1×MIC)?
Answer: effectively and completely prevent

Question: And the “prevention of biofilm formation” value ([2]; 1×MIC (32 ug/ml))?
Answer: effectively and completely prevent

Question: And the “MIC 50%” value (Listeria monocytogenes)?
Answer: 128 µg/mL

Question: What about the “MIC 90%” value (Listeria monocytogenes) of the same molecule?
Answer: 512 µg/mL

Question: What about the “MIC Range” value (Listeria monocytogenes) of the same molecule?
Answer: 1 to 512 µg/mL

Question: And the “MIC 50%” value (Staphylcoccus aureus; Methicillin resistant (120))?
Answer: 4 µg/mL

Question: And the “MIC 90%” value (Staphylcoccus aureus; Methicillin resistant (120))?
Answer: 8 µg/mL

Question: And the “MIC Range” value (Staphylcoccus aureus; Methicillin resistant (120))?
Answer: 1 to 16 µg/mL

Question: And the “MIC 50%” value (Staphylcoccus aureus; Methicillin susceptible (103))?
Answer: 4 µg/mL

Question: What about the “MIC 90%” value (Staphylcoccus aureus; Methicillin susceptible (103)) of the same molecule?
Answer: 8 µg/mL

Question: And the “MIC Range” value (Staphylcoccus aureus; Methicillin susceptible (103))?
Answer: 1 to 16 µg/mL

Question: What about the “MIC 50%” value (Escherichia coli) of the same molecule?
Answer: >512 µg/mL

Question: What about the “MIC 90%” value (Escherichia coli) of the same molecule?
Answer: >512 µg/mL

Question: What about the “MIC Range” value (Escherichia coli) of the same molecule?
Answer: >512 µg/mL

Question: What about the “MIC 50%” value [3] of the same molecule?
Answer: 8 µg/mL

Question: What about the “MIC 90%” value [3] of the same molecule?
Answer: 8 µg/mL

Question: And the “MIC Range” value [3]?
Answer: 8 µg/mL

Question: What about the “CF-301 MIC” value (Lactobacillus spp.) of the same molecule?
Answer: >512 µg/mL

Question: What about the “MIC 50%” value [4] of the same molecule?
Answer: 128 µg/mL

Question: And the “MIC 90%” value [4]?
Answer: 512 µg/mL

Question: And the “MIC Range” value [4]?
Answer: 4 to 512 µg/mL
